The values below come from patent US20210177983A1.

This assay has as its target TNF-α (UniProt P01375). Kind of assay: cell-based or functional assay.
UniProt P01375, sequence (P01375 77-233 limits assumed): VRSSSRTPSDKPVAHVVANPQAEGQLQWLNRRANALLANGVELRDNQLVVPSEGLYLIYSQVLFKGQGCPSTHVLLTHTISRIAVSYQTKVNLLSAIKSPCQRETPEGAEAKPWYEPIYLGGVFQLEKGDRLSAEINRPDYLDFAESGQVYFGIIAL

As to TNF-R2 scCLCH1-Fc (Fc fusion), the IC50 of inhibition of activation of the SEAP reporter gene in HEK-Blue TNF-α cells (235 pM TNF-α) turned out to be 51 pM.
